Drawing on publication PMC7979749, “Structural basis of the dynamic human CEACAM1 monomer-dimer equilibrium” (Communications Biology, 2021), this text covers screen value for three variants.

B1: human CEACAM1 IgV domain, wildtype [human] / itself (parent)
chain: AQLTTESMPFNVAEGKEVLLLVHNLPQQLFGYSWYKGERVDGNRQIVGYAIGTQQATPGPANSGRETIYPNASLLIQNVTQNDTGFYTLQVIKSDLVNEEATGQFHVY

Variants of B1 are the subject of this test. Nature of the test: SEC-MALS. The following applies: with itself; 100 μM protein; read off a plot. In general terms: SEC sorts molecules by how far they enter the pores of the column.
Take AQLTTESMPFNVAEGKEVLLLVHNLPQQLFGYSWYKGERVDGNRQIVGYAIGTQQATPGPANSGRETIYPNASLLIQNVTQNDTGFYTLQVIKSDLVNEAATGQFHVY: the screen value was determined as 15000 Daltons.

Regarding AQLTTESMPFNVAEGKEVLLLVHNLPQQLFGYSWYKGERADGNRQIVGYAIGTQQATPGPANSGRETIYPNASLLIQNVTQNDTGFYTLQVIKSDLVNEEATGQFHVY, the screen value is 19000 Daltons.

For the variant AQLTTESMPFNVAEGKEVLLLVHNLPQQLFGYSWYKGERVDGNRQIVGYAIGTQQATPGPANSGRETIYPNASLLIQNVTQNDTGFYTLQVAKSDLVNEEATGQFHVY, the screen value came to 15000 Daltons.
